Target: HIV-1 YU2 gp120 S375A mutant (HIV-1 YU2)
Experiment: SPR

KR21 biotinylated peptide triazole gave an IC50 of 1280 nM.

Reference: PMC3800186
